Measurements from patent publication US20240425593A1.
pEC50, pKd: −log10 of the molar value. Like-named read-outs stand apart in the source and are kept apart here.

Key:
[1] = target: PD-1 on Jurkat-PD-1-NFAT cells (UniProt Q15116); assay: cell-based or functional assay
[2] = target: human PD-1-ECD-mFc (human; mouse) (UniProt Q15116); assay: ELISA, coated human PD-1-mFc
monkey PD-1-hFc (monkey) [3] = assay: ELISA, coated monkey PD-1-hFc
[4] = target: full-length human PD-1 on CHO-hPD-1 cells (human) (UniProt Q15116); assay: flow cytometry, FITC-labelled antibody on CHO-hPD-1 cells
FcRn protein = FcRn protein (UniProt P55899); assay: BLI (Octet ForteBio), FcRn on SA biosensor, antibody in PBST pH6.0
[5] = target: full-length human PD-1 on CHO-hPD-1 cells (human) (UniProt Q15116); assay: flow cytometry on CHO-hPD-1 cells with FITC-labeled antibody
human PD-1-His (human) = human PD-1-His (human) (UniProt Q15116); assay: BLI (Octet ForteBio), antibody on ProA biosensor, PD-1-His in solution
monkey PD-1-hFc (monkey) [6] = assay: ELISA, coated monkey PD-1-hFc; remark: listed apart in the source
CD64 protein = CD64 protein (UniProt P12314); assay: BLI (Octet ForteBio), CD64 on SA biosensor, antibody in solution
Sequence of CD64 protein (P12314 16-288 limits assumed): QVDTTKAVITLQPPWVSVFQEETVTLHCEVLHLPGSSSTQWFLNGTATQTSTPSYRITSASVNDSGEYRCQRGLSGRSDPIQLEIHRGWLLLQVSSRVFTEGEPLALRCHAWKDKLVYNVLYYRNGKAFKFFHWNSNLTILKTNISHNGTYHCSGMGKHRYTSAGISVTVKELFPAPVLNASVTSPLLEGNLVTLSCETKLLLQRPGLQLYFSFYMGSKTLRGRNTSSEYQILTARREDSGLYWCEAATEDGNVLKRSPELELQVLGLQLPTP

Sequence of control antibody 3 (tirelizumab, IMGT ID: 757) (HC): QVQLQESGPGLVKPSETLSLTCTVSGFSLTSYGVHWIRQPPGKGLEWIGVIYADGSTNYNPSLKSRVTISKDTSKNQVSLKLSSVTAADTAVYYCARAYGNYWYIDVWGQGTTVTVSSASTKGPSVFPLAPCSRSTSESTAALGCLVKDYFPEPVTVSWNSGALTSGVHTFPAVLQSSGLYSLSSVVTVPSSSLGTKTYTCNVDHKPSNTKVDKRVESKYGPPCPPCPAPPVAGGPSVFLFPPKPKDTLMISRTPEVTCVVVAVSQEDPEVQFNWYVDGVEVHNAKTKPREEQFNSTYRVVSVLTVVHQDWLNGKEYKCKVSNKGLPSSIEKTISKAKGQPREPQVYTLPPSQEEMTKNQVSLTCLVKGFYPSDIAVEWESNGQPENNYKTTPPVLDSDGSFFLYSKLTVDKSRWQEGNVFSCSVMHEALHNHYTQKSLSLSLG
Sequence of control antibody 3 (tirelizumab, IMGT ID: 757) (LC): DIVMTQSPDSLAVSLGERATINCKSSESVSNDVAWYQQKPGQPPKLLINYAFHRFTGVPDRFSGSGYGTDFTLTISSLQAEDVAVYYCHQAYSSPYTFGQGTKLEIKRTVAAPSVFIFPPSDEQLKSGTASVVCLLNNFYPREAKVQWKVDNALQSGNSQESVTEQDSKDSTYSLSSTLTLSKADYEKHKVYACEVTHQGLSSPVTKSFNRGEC
Sequence of monkey PD-1-hFc (monkey) (chain, as listed by the source limits assumed): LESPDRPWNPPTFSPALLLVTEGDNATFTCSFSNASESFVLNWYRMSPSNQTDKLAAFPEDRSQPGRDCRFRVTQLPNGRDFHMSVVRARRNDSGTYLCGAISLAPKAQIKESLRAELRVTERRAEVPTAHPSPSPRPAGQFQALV
Sequence of full-length human PD-1 on CHO-hPD-1 cells (human) (Q15116 25-288): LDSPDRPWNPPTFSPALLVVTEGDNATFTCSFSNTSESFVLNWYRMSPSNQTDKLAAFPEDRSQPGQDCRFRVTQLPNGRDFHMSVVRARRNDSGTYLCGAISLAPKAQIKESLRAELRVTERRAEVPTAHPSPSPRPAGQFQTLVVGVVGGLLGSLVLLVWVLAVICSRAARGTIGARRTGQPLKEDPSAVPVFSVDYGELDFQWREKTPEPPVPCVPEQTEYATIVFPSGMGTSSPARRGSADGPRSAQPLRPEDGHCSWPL
Sequence of FcRn protein (P55899 24-297 limits assumed, chain 1 of 2): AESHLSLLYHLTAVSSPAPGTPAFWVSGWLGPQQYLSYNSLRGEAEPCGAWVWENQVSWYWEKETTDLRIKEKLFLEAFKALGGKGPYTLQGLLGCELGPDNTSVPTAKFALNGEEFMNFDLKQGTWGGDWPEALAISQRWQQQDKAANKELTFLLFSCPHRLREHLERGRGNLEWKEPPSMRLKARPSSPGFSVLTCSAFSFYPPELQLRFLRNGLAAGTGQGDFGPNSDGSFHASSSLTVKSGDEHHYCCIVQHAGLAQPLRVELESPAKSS
Sequence of FcRn protein (chain, as listed by the source limits assumed, chain 2 of 2): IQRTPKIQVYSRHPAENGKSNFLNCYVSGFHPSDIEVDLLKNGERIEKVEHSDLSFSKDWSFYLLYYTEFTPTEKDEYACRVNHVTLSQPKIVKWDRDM
Sequence of PD-1 on Jurkat-PD-1-NFAT cells (Q15116 25-288 limits assumed): as the sequence (Q15116 25-288) above
Sequence of human PD-1-ECD-mFc (human; mouse) (Q15116 25-170): as the sequence (chain, as listed by the source limits assumed) above, with E2D, L19V, A35T, R67Q, A144T counted along it
Sequence of human PD-1-His (human) (Q15116 25-170): as the sequence (chain, as listed by the source limits assumed) above, with E2D, L19V, A35T, R67Q, A144T counted along it

Row | Substance | EC50 by the PD-1/PD-L1 luciferase reporter system [1] [nM] | pEC50 [2] | pEC50 (monkey PD-1-hFc (monkey) [3]) | pEC50 [4] | pKd (FcRn protein) | EC50 (read off the curve) [5] [ng/mL] | pKd (human PD-1-His (human)) | pEC50 (monkey PD-1-hFc (monkey) [6]) | pKd (CD64 protein)
1 | control antibody 3 (tirelizumab, IMGT ID: 757) | 3.79 | 9.92 | 9.56 | 10.03 | 7.84 | 10 | 8.23 | – | –
2 | control antibody 1 (pembrolizumab, IMGT ID: 472) | – | – | 9.49 | – | 7.77 | – | – | 9.88 | 8.16
